Source: patent US6599718B1, “Growth hormone secretagogue related receptors and nucleic acids” (priority 1998, dated 2003)
Blank lines part the entries; values can stand above or below the molecule they belong to. Ends that are not written are not given here.

Assays:
[1] = biological target: human growth hormone secretagogue related receptor (GHSR-R) (human) (UniProt Q9HB89); experiment: cell-based or functional assay
[2] = system: Male rats (Charles River Sprague Dawley); experiment: Overnight food intake after ICV (lateral ventricle) injection in rats; assay type: in vivo, rat; conditions: 10 μg ICV, relative to aCSF vehicle, P<0.01, n=6
Experimental: Animals and Diet: Male rats (Charles River Sprague Dawley) weighing 250-350 g were maintained in a temperature and humidity controlled facility with a 12 hour light/dark cycle (4:00 AM lights on). Rats were fed standard rodent ground chow (Purina#7012). Fresh diet was provided daily. Both food and water were supplied ad libitum throughout both the pre- and post-surgery periods.
ICV cannulation: Rats under ketamine/xylazine anesthesia, were stereotaxically implanted in the lateral ventricle with a 26G guide cannula. The guide cannula (Plastics One Roanoke,Va.) was secured with three set screws and dental cement. A dummy internal cannula was placed into the guide cannula to maintain cannula patency. Rats were individually housed in Nalgene metabolism cages and allowed to recover a minimum of seven days before injection with test compounds.
Acclimation: Beginning the day after surgery, each rat was acclimated to the handling and injection procedure, as well as, the feeding regimen. […] Food intake was measured two hours later and the following morning. […]
Confirmation of cannula placement: Once the rats were fully recovered from surgery, guide cannula placement was confirmed by evaluating the food intake induced by the injection of 5 μg of hNPY (Peninsula Laboratories, Belmont, Calif.) after a one hour satiation period. Two hour post-injection food intake was recorded for each rat. […]

[3] = biological target: T1, GHSR-R (Homo sapiens, UniProt Q9HB89); experiment: β-lactamase assay in CHO-NFAT-bla cells stably expressing GHSR-R; assay type: cell-based; conditions: triplicates, read-out: EC50 of NMU for GHSR-R
T1 construct: expressed in transfected cells
T1 sequence (Q9HB89 24-426 limits assumed): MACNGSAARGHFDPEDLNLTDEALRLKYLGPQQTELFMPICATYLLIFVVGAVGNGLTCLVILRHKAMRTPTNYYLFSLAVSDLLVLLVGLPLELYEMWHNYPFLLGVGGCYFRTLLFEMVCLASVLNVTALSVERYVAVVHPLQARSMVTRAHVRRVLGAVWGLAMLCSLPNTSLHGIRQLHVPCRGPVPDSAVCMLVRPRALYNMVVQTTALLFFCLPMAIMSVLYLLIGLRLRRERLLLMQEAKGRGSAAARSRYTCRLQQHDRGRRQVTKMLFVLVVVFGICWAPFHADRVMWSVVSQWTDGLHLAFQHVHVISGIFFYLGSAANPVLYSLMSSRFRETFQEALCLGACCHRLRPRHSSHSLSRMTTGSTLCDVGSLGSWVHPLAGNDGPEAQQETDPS
Experimental: β-lactamase assays were carried out as described previously; Zlokarnik et al., 1998, Science 279:84-88. CH.3xNFAT-bla cells (Aurora Biosciences, San Diego, Calif., USA) stably expressing GHSR-R were maintained at 37° C./5% CO2 in DMEM+10% fetal bovine serum (GIBCO-BRL, Gaithersburg, Md., USA), 1 mM sodium pyruvate, 1 mM non-essential amino acid, 55 μM 2-mecaptoethanol, 250 μg/ml zeocin, 5.0 μg/ml puromycin. Cells were seeded at 7,000 cells/well in 96-well clear bottom black-walled plates two days before assay.
The day the assay was performed, growth media was removed from the cells and replaced with 0.05 mL/well of phenol red-free Opti-MEM (GIBCO-BRL, Gaithersburg, Md., USA). Neuromedin U was diluted in Opti-MEM using 5-fold serial dilutions, and added into assay plates in triplicates at 0.05 ml/well. The plates were incubated at 37° C./5% CO2 for 4 hours. […]
Fluorescence was measured at emission wave length of 460 nM and 535 nM using an excitation wave length of 405 nM in a Tecan SpectraFluor Plus fluorescence microplate reader (Tecan Austria, Saltzburg, Austria). The ratio of fluorescence between 460 nM and 535 nM was calculated and plotted using the software GraphPad Prism Version 3.0 (GraphPad Software, Inc., San Diego, Calif., USA).

[4] = system: other G-protein coupled receptors; experiment: Aequorin assay, cells transfected with other G-protein coupled receptors in the same vector; assay type: cell-based; conditions: other GPCRs cloned into the same vector
[5] = biological target: T2, human growth hormone secretagogue related receptor (GHSR-R) (human, UniProt Q9HB89 24-426); experiment: cell-based or functional assay
T2 sequence: T1 sequence (Q9HB89 24-426 limits assumed)

[6] = biological target: T2, human growth hormone secretagogue …; experiment: radioligand competition against 0.1 nM 125I-labeled rat NMU on membranes of HEK-293/aeq17 cells stably expressing human GHSR-R, filtration
Experimental: (§1) All procedures were conducted on ice. Cell pellets were homogenized in a tissue grinder with a PTFE pestle (25 strokes). Crude cell membranes were then isolated by centrifugation of the cell lysate at 13,000×g for 30 minutes. Membrane pellets were resuspended at a protein concentration of 2.8 mg/ml in 50 mM Tris-HCl, pH 7.4, 5 mM MgCl2.
(§2) After incubation for 1 hour at room temperature, binding reactions were filtered through GC/C filters (Whatman; presoaked for 1 hour in 1% polyethylenimine) on a 48-well cell harvester (Brandel), washed 3×3 ml with ice-cold 50 mM Tris-HCl, pH 7.4 buffer with 10 mM MgCl2. Radioactivity on the filters was quantitated by gamma counting.

[7] = biological target: T2, human growth hormone secretagogue …; experiment: radioligand competition on membranes of HEK293 cells stably expressing human GHSR-R (summary of Example 10)
Experimental: as §1, §2

EC50, beta-lactamase reporter assay in CHO-NFAT-bla cells [1]: 0.075 nM
EC50, beta-lactamase reporter assay in HEK293CRE-bla cells [1]: 3 nM
Molecule: neuromedin U (NMU), species and length not stated (peptide)

EC50 [3]: ~0.075 nM
Molecule: neuromedin U (YKVNEYQGPVAPSGGFFLFRPRN; ends and bridges not checked; UniProt P12760 144-166, looked up) [NMU, neuropeptide neuromedin U; rat peptide (Phoenix Pharmaceuticals) in the food intake study]
suppression of food intake [2]: 59%
response to NMU in cells expressing other G-protein coupled receptors [4]: did not show any response

EC50, FLIPR intracellular Ca2+ assay, COS-7 cells transiently transfected with GHSR-R [1]: 45 nM
EC50, aequorin bioluminescence assay (Ca2+ mobilization), HEK293aeq/17 cells stably expressing GHSR-R [1]: 2.1 nM
Molecule: porcine neuromedin U-8 (porcine NMU-8) (from UniProt P34964 158-165) (peptide)

EC50, FLIPR intracellular Ca2+ assay, COS-7 cells transiently transfected with GHSR-R [5]: 55 nM
EC50, aequorin bioluminescence assay (Ca2+ mobilization), HEK293aeq/17 cells stably expressing GHSR-R [5]: 14.1 nM
IC50 [6]: 3.3 nM
IC50 [7]: 3 nM
B1: rat neuromedin U-23 (rat NMU-23) (peptide, UniProt P12760 144-166, looked up)
peptide: YKVNEYQGPVAPSGGFFLFRPRN-NH2
notes: mature; also called unlabeled rat neuromedin U-25; Neuromedin U-25 (rat)
